# From paper PMC7682986, “Talin-activated vinculin interacts with branched actin networks to initiate bundles” (eLife, 2020)
# T1: full-length human vinculin (human, UniProt P18206-2 1-1066, Alexa Fluor 488 maleimide on cysteines (30% Alexa488-labeled monomers in the TIRFM assay on patterns))
# T1 construct: human vinculin, cDNA isolated from the human A431 cell line, PCR product of 1066 amino acids; FX cloning and 3C cleavage may leave a few extra residues at the ends; also called VCL; source: Sf9 insect cells (baculovirus), purified (Ni IMAC, 3C protease cleavage on the resin, Superdex 200); not shown: GFP, C-terminal, cleaved; 10xHis, C-terminal, cleaved
# T1 sequence (looked up): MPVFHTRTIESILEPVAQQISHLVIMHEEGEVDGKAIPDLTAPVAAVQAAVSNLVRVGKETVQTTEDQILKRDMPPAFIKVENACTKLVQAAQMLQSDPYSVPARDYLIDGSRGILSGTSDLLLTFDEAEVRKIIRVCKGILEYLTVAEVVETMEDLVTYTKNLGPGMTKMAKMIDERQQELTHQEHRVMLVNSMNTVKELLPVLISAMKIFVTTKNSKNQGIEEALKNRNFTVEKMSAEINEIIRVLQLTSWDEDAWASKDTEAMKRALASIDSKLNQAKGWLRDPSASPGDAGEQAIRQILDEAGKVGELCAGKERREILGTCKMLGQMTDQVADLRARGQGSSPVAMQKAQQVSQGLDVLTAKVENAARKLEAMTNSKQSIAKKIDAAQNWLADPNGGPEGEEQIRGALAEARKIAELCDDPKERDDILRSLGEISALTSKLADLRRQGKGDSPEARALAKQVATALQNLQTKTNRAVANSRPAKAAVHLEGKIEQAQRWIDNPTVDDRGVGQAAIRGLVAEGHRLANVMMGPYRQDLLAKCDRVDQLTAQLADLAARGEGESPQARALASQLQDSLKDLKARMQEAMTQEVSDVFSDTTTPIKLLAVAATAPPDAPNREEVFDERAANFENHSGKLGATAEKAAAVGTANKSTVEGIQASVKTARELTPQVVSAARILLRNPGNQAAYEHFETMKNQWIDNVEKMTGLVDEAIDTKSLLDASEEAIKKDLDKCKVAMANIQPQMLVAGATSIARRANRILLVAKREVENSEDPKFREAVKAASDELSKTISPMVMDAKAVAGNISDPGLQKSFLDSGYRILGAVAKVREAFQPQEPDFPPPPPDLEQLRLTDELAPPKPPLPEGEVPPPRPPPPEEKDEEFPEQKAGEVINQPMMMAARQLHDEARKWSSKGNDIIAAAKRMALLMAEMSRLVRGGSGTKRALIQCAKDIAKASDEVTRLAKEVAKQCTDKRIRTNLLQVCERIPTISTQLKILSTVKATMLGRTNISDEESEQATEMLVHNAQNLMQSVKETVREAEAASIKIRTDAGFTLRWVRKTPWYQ
# B1: GST-talin VBS1 (human talin 1 vinculin-binding site 1, residues 482–636) (domain or fragment, UniProt Q9Y490 482-636, looked up)
# chain: RGHMPPLTSAQQALTGTINSSMQAVQAAQATLDDFDTLPPLGQDAASKAWRKNKMDESKHEIHSQVDAITAGTASVVNLTAGDPAETDYTAVGCAVTTISSNLTEMSRGVKLLAALLEDEGGSGRPLLQAAKGLAGAVSELLRSAQPASAEPRQN
# notes: construct from C; Le Clainche; Coated on micropatterns as GST-talin VBS1; also called GST-VBS1; VBS1-GST; source: E. coli BL21 (DE3)pLysS, purified (glutathione-Sepharose)
# Target: T1, full-length human vinculin
# Assay: TIRF microscopy on protein-coated micropatterns; micropatterns coated with 0.4 µM GST-talin VBS1 (control patterns with BSA); flow of 300 nM inactive vinculin (Alexa488), 0.3 µM actin, Arp2/3 complex and 80 nM WAVE WA; 20 mM Hepes pH 7.0, 40 mM KCl, 0.4% methylcellulose, 0.2% BSA
# Conditions: both partners purified
binder,measurement,value
B1,binding result,binds
